Tests used:
Experiment in all cases: ELISA on coated viral particles
[1] = target: Influenza virus A/California/7/2009pdm (H1N1pdm) (Influenza A virus A/California/7/2009pdm (H1N1pdm))
[2] = target: Influenza virus A/Brisbane/59/2007 (H1N1) (Influenza A virus A/Brisbane/59/2007 (H1N1))
[3] = target: Influenza virus A/New Caledonia/20/1999 (H1N1) (Influenza A virus A/New Caledonia/20/1999 (H1N1))
[4] = target: Influenza virus A/Panama/2007/1999 (H3N2) (Influenza A virus A/Panama/2007/1999 (H3N2))

B1: Group 3 representative clone F081-281, Fab-cp3-type antibody (Fab, V domains shown)
VH: QVQLVQSGSEVKKPGSSVKVSCSFKASGGIISKYAITWVRQAPGQGLEWMGGIIAIFGSTNYAQKFQGRLTITSDESTSTAYMELSSLTSEDTAVYYCGRGPHYYESHLDYWGQGTLVTVSS
VL: EIVLTQSPGTLSLSPGERATLSCRASQGMSSSFLAWYQQKPGQPPRLLISGASTRATGIPDRFSGSGSGTDFTLTINRLEPEDFAVYYCQQYGSSPRTFGQGTKVEIK
Binding activity (absorbance at 492 nm) [1]: 2.87 | Binding activity (absorbance at 492 nm) [2]: 2.98 | Binding activity (absorbance at 492 nm) [3]: 2.86 | Binding activity (absorbance at 492 nm) [4]: 0.18

B2: Group 64 representative clone F083-301, Fab-cp3-type antibody (Fab, V domains shown)
VH: QVQLVQSGAEVKKPGSSVKVSCKASGGIFNSNAISWVRQAPGQGLEWMGGIIGIFGTANYAQKFQGRVTIAADQSTNTVFMELSSLTSEDTAVYFCARSRGYSFGYGTDYFDYWGQGTLVTVSS
VL: DIVMTQSPSTLSASVGDRVTITCRASQSISSWLAWYQQAPGKAPKLLIYEASKLQSGVPSRFSATGSGTEFTLTIASLQPEDFAIYYCQHYEAYPFSFGPGTKLDVK
Binding activity (absorbance at 492 nm) [1]: 0.46 | Binding activity (absorbance at 492 nm) [2]: 1.44 | Binding activity (absorbance at 492 nm) [3]: 1.34 | Binding activity (absorbance at 492 nm) [4]: 0.16

B3: Group 65 representative clone F083-366, Fab-cp3-type antibody (Fab, V domains shown)
VH: QVQLVQSGSEVKKPGSSVKVSCKASRGIFSSYAISWVRQAPGQGLEWMGAVIPMFGTLKYAENFQGRITISADKSMSAAYMELSSLRSEDTAVYYCARNYYGSGTYFNDAFDIWGQGTMVTVSS
VL: QSVLTQPPSGSGAPGQRVTISCTGGNSNIGAGYDVNGYQQLPGKAPKLLIYGNNNRPSGVPDRFSGSKSGTSASLAITGLQVEDEAHYYCQSYDNGLSGSVFGGGTQLTVLG
Binding activity (absorbance at 492 nm) [1]: 1.13 | Binding activity (absorbance at 492 nm) [2]: 2.84 | Binding activity (absorbance at 492 nm) [3]: 2.93 | Binding activity (absorbance at 492 nm) [4]: 0.18

B4: Group 1 representative clone F080-227, Fab-cp3-type antibody (Fab, V domains shown)
VH: QVQLQESGAEVKKPGSSVKVSCKASGGIFRRNAISWVRQAPGQGLEWMGGIIAIFGTANYAQKFQGRVTITADESTSTVYMELSSLRPEDTAVYYCARGPNYYENFFDYWGQGTLVTVSS
VL: DIVMTQSPSSLSASVGDRLDLTCRASQDIANSLAWYKQRPGKAPELLVFGASRLEGGVPSRFSGTRAGTDFTLTISSLQPEDLGTYFCQQYFSFPRTFGQGTTLDLR
Binding activity (absorbance at 492 nm) [1]: 2.95 | Binding activity (absorbance at 492 nm) [2]: 3.1 | Binding activity (absorbance at 492 nm) [3]: 3.15 | Binding activity (absorbance at 492 nm) [4]: 0.14

B5: Group 36 representative clone F082-243, Fab-cp3-type antibody (Fab, V domains shown)
VH: QVQLQQSGAEVKKPGSSVKVSCKASGGIFRKNAISWVRQAPGQGLEWMGGIIAIFGTANYAQKFQGRVTITADDSTNTVYMELTSLRYEDTAVYYCARGPNYYENYFDFWGQGTLVTVSS
VL: EIVLTQSPSSLSASLRDTVTITCRTSQAITNYLAWYQQRPGKAPKLLIYAASVLQSGVPSRFSGSGSGTDFTLTISSLQPEDFATYYCQKYDSAPYTFGQGTKLEIK
Binding activity (absorbance at 492 nm) [1]: 0.8 | Binding activity (absorbance at 492 nm) [2]: 1.05 | Binding activity (absorbance at 492 nm) [3]: 0.96 | Binding activity (absorbance at 492 nm) [4]: 0.13

B6: Group 2 representative clone F082-220, Fab-cp3-type antibody (Fab, V domains shown)
VH: QVQLVQSGAEVKKPGSSVKVSCKASGGIFRSNAVSWVRQAPGQGLEWMGGIIAIFGTPKYAQKFQGRVTITADESTSTVYMELSGLRYEDTAVYYCARGPNYYESYFDYWGQGTLVTVSS
VL: DIVMTQSPPSLSASVGDRVTITCRASQGISNYLAWYQQKPGKAPKLLIFGASTLHSGVSSRFSGSGSGPDFTLTISSLQPEDAATYYCQKYHSAPLTFGGGTKVEMK
Binding activity (absorbance at 492 nm) [1]: 2.72 | Binding activity (absorbance at 492 nm) [2]: 3.15 | Binding activity (absorbance at 492 nm) [3]: 3.37 | Binding activity (absorbance at 492 nm) [4]: 0.16

B7: Group 39 representative clone F082-237, Fab-cp3-type antibody (Fab, V domains shown)
VH: QVQLVQSGAEVKKPGSSVKVSCKASGGIFNKYGISWVRQAPGQGLEWMGGILAIFGTTNYAQKFQGRVTISADESSTTVYMELSSLTSEDTAVYYCARGNTYYSSYFDQWGQGTLVTVSS
VL: QSVLTQPPSVSVAPGQTATITCGGDKIGTGPVHWYQQMPGRAPVLLIYASTHRPSRIPERFSGSKSDNTATLSISGVGVGDEADYYCQMWDSSSVHPIVFGGGTKLTVLS
Binding activity (absorbance at 492 nm) [1]: 2.62 | Binding activity (absorbance at 492 nm) [2]: 1.95 | Binding activity (absorbance at 492 nm) [3]: 1.94 | Binding activity (absorbance at 492 nm) [4]: 0.13

B8: Group 54 representative clone F083-354, Fab-cp3-type antibody (Fab, V domains shown)
VH: QVQLVQSGSEVKKPGSSVKVSCKASGGIFNSYGISWVRQAPGQGLEWMGGILAIFGTTNYAQKFQGRVTITADDSSKTVYMELSSLTSEDTAVYYCARGSTYYSSYFDQWGQGTLVTVSS
VL: DIQMTQSPSSLSASVGDRVTITCRASQGIRNSLAWYQQKPGQVPKLLIYSATTLRSGVPYRFSGSGSGTDFTLTISGLQPEDVGTYFCHRYDSAPLTFGGGTRVALK
Binding activity (absorbance at 492 nm) [1]: 2.54 | Binding activity (absorbance at 492 nm) [2]: 3.01 | Binding activity (absorbance at 492 nm) [3]: 3.05 | Binding activity (absorbance at 492 nm) [4]: 0.16

B9: Group 48 representative clone F083-389, Fab-cp3-type antibody (Fab, V domains shown)
VH: QVQLVQSGAEVKKPGSSVKVSCKASGDIFNKFAITWVRQAPGQGLEWMGGITALFATTSYAQKFQDRVTINWDESTTTAFMELSSLRFEDTAVYYCARGPNYYETYLDNWGQGTLVTVSS
VL: EIVLTQSPTILSASVGDRVTITCRASQSISKWLAWYQQKPGKVPKLLIYMASTLESGVPSRFSGSGSGSEFTLTISSLQPGDFATYYCQQYNSYPRTFGQGTKVEINV
Binding activity (absorbance at 492 nm) [1]: 2.49 | Binding activity (absorbance at 492 nm) [2]: 2.83 | Binding activity (absorbance at 492 nm) [3]: 2.72 | Binding activity (absorbance at 492 nm) [4]: 0.14

B10: Group 47 representative clone F083-308, Fab-cp3-type antibody (Fab, V domains shown)
VH: QVQLVQSGAEVKKPGSSVKVSCKASGGIFRSHAISWVRQAPGQGLEWMGGIIAIFGTTHYAQQFQGRVTITADESTSTVYMELSTLRSEDTAVYYCARGPNYFESYFDNWGQGTLVTVSS
VL: EIVLTQSPATLSLSPGERATLSCRASQTISSYLAWYQQKPGQAPRLLIYGASNRATGIPARFSGSGSGTDFTLTINSLEPEDFAVYYCQQRSSWPPITFGQGTRLEIK
Binding activity (absorbance at 492 nm) [1]: 1.21 | Binding activity (absorbance at 492 nm) [2]: 1.82 | Binding activity (absorbance at 492 nm) [3]: 1.79 | Binding activity (absorbance at 492 nm) [4]: 0.16

B11: Group 43 representative clone F081-007, Fab-cp3-type antibody (Fab, V domains shown)
VH: QVQLQQSGAEVKKPGSSVKVSCKASGGIFRKNAISWVRQAPGQGLEWMGGISAIFGTANYAQKFQGRVTITADESSNTVYMDLSRLRSEDTAIYYCASHPTYHFDKSGYRFDSWGQGTLVTVSS
VL: QSVLTQPPSVSAAPGQKVTISCSGSSSNIGNNYVSWYQQLPGTAPKLLIYDNNKRPSGIPDRFSGSKSGTSATLGITGLQTGDEADYYCGTWDSSLSAGVFGGGTKLTVLG
Binding activity (absorbance at 492 nm) [1]: 2.33 | Binding activity (absorbance at 492 nm) [2]: 2.72 | Binding activity (absorbance at 492 nm) [3]: 2.84 | Binding activity (absorbance at 492 nm) [4]: 0.14

B12: Group 37 representative clone F083-311, Fab-cp3-type antibody (Fab, V domains shown)
VH: QVQLVQSGSEVKKPGSSVKVSCKASGGIFRTNAISYVRQAPGQGLEWMGGITAIFGTPNYAQKFQGRVTIIADESTSTVYMELGSLTSEDTAVYYCATSGTYYVSYFDSWGQGTLVTVSS
VL: DIVMTQSPGTLTLSPGERATLSCRASQSLYSSHLAWYQQKPGQPPRLLIYGASTRAPGTPDRFSGSGSGTDFTLTITALDPEDSAVYYCQQYGSSPITFGQGTRLEIK
Binding activity (absorbance at 492 nm) [1]: 1.82 | Binding activity (absorbance at 492 nm) [2]: 2.64 | Binding activity (absorbance at 492 nm) [3]: 2.59 | Binding activity (absorbance at 492 nm) [4]: 0.15

B13: Group 44 representative clone F081-008, Fab-cp3-type antibody (Fab, V domains shown)
VH: QVQLVQSGAEVKKPGSSVKVSCKASGGTFSSFSTYTISWVRQAPGQGLEWMGRSIPLLGITNYAQKFQGRVTITADISTSTAYMELSSLRSEDTAVYYCARYQSSDYYNSEYFQHWGQGTLVTVSS
VL: EIVLTQSPGTLSLSLGERVTLSCRASQNVGTNYLAWYQQKPGQAPRLLIYGASSRATGVPDRFSGSGSGTDFTLTISRLAPEDFAVYYCQQYSSSPLTFGGGTKLEIK
Binding activity (absorbance at 492 nm) [1]: 0.43 | Binding activity (absorbance at 492 nm) [2]: 2.89 | Binding activity (absorbance at 492 nm) [3]: 3.25 | Binding activity (absorbance at 492 nm) [4]: 0.17

B14: Group 38 representative clone F082-338, Fab-cp3-type antibody (Fab, V domains shown)
VH: QVQLQESGAEVKKPGSSVKVSCKASGGPFRSHAISWVRQAAGQGLEWMGGITAVFGTANYAQKFQGRVTITADESTNIVSMELSSLRSEDTAIYYCARSLGYHTQYNGMDVWGQGTTVTVSS
VL: DVVMTQSPSSVSASVGDRVTITCRASQGISSWLAWYQQKPGKAPKLLIYAASSLQSGVPSRFSGSGSGTDFTLTISSLQPEDFATYYCQQANSFPITFGQGTRLEIK
Binding activity (absorbance at 492 nm) [1]: 2.82 | Binding activity (absorbance at 492 nm) [2]: 2.93 | Binding activity (absorbance at 492 nm) [3]: 3.01 | Binding activity (absorbance at 492 nm) [4]: 0.13

B15: Group 35 representative clone F082-117, Fab-cp3-type antibody (Fab, V domains shown)
VH: QVQLVQSGSEVKKPGSSVKVSCKSSGGILRRSAISWVRQAPGQGLEWMGGILAIFGTTKYAQKFQGRITITADESTNTVHMELSSLRPDDTAVYYCAGGPHYYVSYFDSWGQGTLVTVSS
VL: DIQMTQSPATLSLSPGERATLSCRASQSVRSYLAWYQQKPGQAPRLLIYDASNRATGIPARFSGSGSGTEFTLTISRLEPEDFAVYYCQQRSNWLFTFGPGTKVDFK
Binding activity (absorbance at 492 nm) [1]: 3.11 | Binding activity (absorbance at 492 nm) [2]: 3.26 | Binding activity (absorbance at 492 nm) [3]: 3.35 | Binding activity (absorbance at 492 nm) [4]: 0.15

B16: Group 63 representative clone F083-336, Fab-cp3-type antibody (Fab, V domains shown)
VH: QVQLQQSGAEVKQPGSSVKVSCKASGGIFRSNAISWVRQAPGQGLEWMGGIVALFGTANYAQKFQGRVTITADESTSTVYMELSSLRSEDTARYYCARNSGYHISGFYLDYWGQGTLVTVSS
VL: EIVLTQSPSSLSASVGDRVTITCRASQGISNYLAWYQQRPGKVPKLLIYTASTLLSGVPSRFSGGGSGTDYTLTISSLQPEDVATYYCQEYKSVPLTFGPGTKVEIK
Binding activity (absorbance at 492 nm) [1]: 1.56 | Binding activity (absorbance at 492 nm) [2]: 1.89 | Binding activity (absorbance at 492 nm) [3]: 1.61 | Binding activity (absorbance at 492 nm) [4]: 0.15

— patent US20160200799A1
